In the RNAGym collection of RNA variant scans (doi:10.7554/elife.90254):

B1: LINE1-full (parent)
chain: UACGUAGGUGGUUUUCCCCUGAUAGUGCUAAGGGGGCCUGGAAGUUUGGACUGGGCAGAGCUCAACACAGCGUGGCAAAGUGGCUGUGGCUAGACUGCCUCUCUGGAUUCCUCGUCACUCAGCAGGGCAUCUCUGAGAGAAAUGCC

Variants of: B1
Experiment: self-cleavage, relative activity (ratio to wild type); higher = more cleavage; in vitro, sequencing; the parent is a self-cleaving ribozyme

Variant	self-cleavage
UACGUAGGUGGUUCUCCCCUGAUAGUGCUAAGGGGGCCUGGAAGUUUGGACUGGGCAGAGCUCAACACAGCGUGGCAAAGUGGCUGUGUCUAGACUGCCUCUCUGGAUUCCUCGUCACUCAGCAGGGCAUCUCUGAGAGAAAUGCC [U14C G89U]	0.05
UACGUAUGUGGUUUUCCCCUGAUAGUGCUAAGGGGGCCUGGAAGUUUGGACUGGGCAGAGCUCAACACAGCGUGGCAAGGUGGCUGUGGCUAGACUGCCUCUCUGGAUUCCUCGUCACUCAGCAGGGCAUCUCUGAGAGAAAUGCC [G7U A79G]	0.87
UACGUAGGUGGUUAUCCCCUGAUAGUGCUAAGGGGGCCUGGAAGUUUGGACUGGGCAGAGCUCAACACAGCGUGGCAAAGUGGCUGAGGCUAGACUGCCUCUCUGGAUUCCUCGUCACUCAGCAGGGCAUCUCUGAGAGAAAUGCC [U14A U87A]	0.15
UACGUAGGUGGUUUUCCCCUGAUAGUGCUAAGGGGGCCUGGAAGUUUGGACUGGGCAGAGCUCAACACAGCGUGGCAAAGUGGCUGUGGCUAGACUGCCUCUCUGGAUUCCUCGUCACUCAGCAGGGCUUCUCUGAGAGAAACGCC [A129U U143C]	1.64
UACGUAGGUGGUUUUCCCCUGAUUGUGCUAAGGGGGCCUGGAAGUUUGGACUGGGCAGAGCUCAACACAGCGUGGCAAAGUGGCUGUGGCUAGACUGCCUCUCUGGAUUCCUCGUCACUCAGCAGGGCUUCUCUGAGAGAAAUGCC [A24U A129U]	1.26
UACGUAGGUGGUUUUCCCCUGAUAGUGCUAAGGGGGCCCGGAAGUUUGGACUGGGCAGAGCUCAACACAGCGUGGCAAAGUGUCUGUGGCUAGACUGCCUCUCUGGAUUCCUCGUCACUCAGCAGGGCAUCUCUGAGAGAAAUGCC [U39C G83U]	0.52
UACAUAGGUGGUUUUCCCCUGAUAGUGCUAAGGGGGCCUGGAAGUUUGGACUGGGCAGAGCUCAACACAGCGUGGCAAAGUGGCUGUGGCUAGACUGCCUCUCUGGAUUCCUCGUCACUCAGCAGGGCAUCUCUGGGAGAAAUGCC [G4A A136G]	0.86
UACGUAGGUGGUUUUCCCCUGAUAGUGCUAAGGGGGCCUGGAAGUUUGGACUGGGCAGAGCUCAACACAGCGGGGCAAAGUGGCUGUGGCUAGACUGCCUCUCUGGAUUCCUCGUCACUCAGCAGGGCAUCUCUGUGAGAAAUGCC [U73G A136U]	0.81
UACGUAGGUGGUUUUCCCCUGAUAGUGCUAAGGUGGCCUGGAAGUUUGGACUGGGCAGAGCUCAACACAGCGUGGCAAAGUGGCUGUGGCAAGACUGCCUCUCUGGAUUCCUCGUCACUCAGCAGGGCAUCUCUGAGAGAAAUGCC [G34U U91A]	0.49
UACGUAGGUGGUUUUCCCCUGAUAGGGCUAAGGGGGCCUGGAAGUUUGGACUGGGCAGGGCUCAACACAGCGUGGCAAAGUGGCUGUGGCUAGACUGCCUCUCUGGAUUCCUCGUCACUCAGCAGGGCAUCUCUGAGAGAAAUGCC [U26G A59G]	0.41
UACGUAGGUGAUUUUCCCCUGAUAGUGCUAAGGGGGCCUGGAAGUUUGGACUGGGCAGAGCUCAACACAGCGUGGCAAAGUGGCUGUGGCUAGACUGCCUCUCCGGAUUCCUCGUCACUCAGCAGGGCAUCUCUGAGAGAAAUGCC [G11A U104C]	1.59
UACGUAGGUGGGUUUCCCCUGAUAGUGCUAAGGGGGCCUGGAAGUUUGGACUGGGCAGAGCUCAACACAGCGUGGCAAAGGGGCUGUGGCUAGACUGCCUCUCUGGAUUCCUCGUCACUCAGCAGGGCAUCUCUGAGAGAAAUGCC [U12G U81G]	0.68
UACGUAGGUGGUUUUCCCCUGAUAGUGCUAAGGGGGCCUGGAAGUUAGGACUGGGCAGAGCUCAACGCAGCGUGGCAAAGUGGCUGUGGCUAGACUGCCUCUCUGGAUUCCUCGUCACUCAGCAGGGCAUCUCUGAGAGAAAUGCC [U47A A67G]	0.38
UACGUAGGUGGUUUUCCCCUGAUAGUGCUAAGGGGGCCUGGAAGUUUGGACUGGGCAGAGCUCAACACAGCGUGGCAAAGUGGCUGUGGCUAGACUGCCUCUCAGGAUUCCUCGUCACUCAGCAGGGCAUCUCUGAGAGAAGUGCC [U104A A142G]	1.43
UACGUAGGUGGUUUUCCCCUGAUAGUGCUAAGGGGGCCUGGCAGUUUGGACUGGGCAGAGCUCAACACAGCGUGGCAAAGUGGCUGUGGCUCGACUGCCUCUCUGGAUUCCUCGUCACUCAGCAGGGCAUCUCUGAGAGAAAUGCC [A42C A92C]	0
UACGUAGGUGGUUUUCCCCUGAUAGUGCUAAGGGGGCCUGGAAGUUUGGACUGGGCAGAGCUCAACACGGCGUGGUAAAGUGGCUGUGGCUAGACUGCCUCUCUGGAUUCCUCGUCACUCAGCAGGGCAUCUCUGAGAGAAAUGCC [A69G C76U]	0.69
UACGUAGGUGGUUCUCCCCUGAUAGUGCUGAGGGGGCCUGGAAGUUUGGACUGGGCAGAGCUCAACACAGCGUGGCAAAGUGGCUGUGGCUAGACUGCCUCUCUGGAUUCCUCGUCACUCAGCAGGGCAUCUCUGAGAGAAAUGCC [U14C A30G]	1.08
UACGUAGGUGGUUUUCCCCUGAUAGUGCUAAGGGGGCCUAGAAGUUUGGACUAGGCAGAGCUCAACACAGCGUGGCAAAGUGGCUGUGGCUAGACUGCCUCUCUGGAUUCCUCGUCACUCAGCAGGGCAUCUCUGAGAGAAAUGCC [G40A G53A]	0.74
UACGUAGAUGGUUUUCCCCUGAUAGUGCUAAGGGGGCCUGGAAGUUUGGACUGGGCAGAGUUCAACACAGCGUGGCAAAGUGGCUGUGGCUAGACUGCCUCUCUGGAUUCCUCGUCACUCAGCAGGGCAUCUCUGAGAGAAAUGCC [G8A C61U]	0.06
UACGUAGGCGGUUUUCCCCUGAUAGUGCUAAGGGGGCCUGGAAGUUUGGACUGGGCAAAGCUCAACACAGCGUGGCAAAGUGGCUGUGGCUAGACUGCCUCUCUGGAUUCCUCGUCACUCAGCAGGGCAUCUCUGAGAGAAAUGCC [U9C G58A]	0.04

Variant	self-cleavage
UACGUAGGUGGUUUUCCCCUGAUAGUGCUAAGGGGGCCUGGAAGUUUGGACUGGGCAGAGCUCAACACAGCGUGGCAAAGUGGCUGUGGCUAGACUGCCUCUCUGGAUACCUCGUCACUCAGCAGGGCAUCCCUGAGAGAAAUGCC [U109A U132C]	1.37
UACGUAGGUGGCUUUCCCCUGAUAGUGCUAAGGGGGCCUGGAAGUUUGGACUGGGCAGAGCUCAACACAGCGUGGCAAAGUGGCUGUGGCUAGGCUGCCUCUCUGGAUUCCUCGUCACUCAGCAGGGCAUCUCUGAGAGAAAUGCC [U12C A94G]	0.37
UACGUAGGAGGUUUUCCCCUGAUAGUGCUAAGGGGGCCUGGAAGUUUGGACUGGGCAGAGCUCAACACAGCGUGGCAAAGUGGCUGUGGCUAGACUGCCUCUCUGGGUUCCUCGUCACUCAGCAGGGCAUCUCUGAGAGAAAUGCC [U9A A107G]	1.02
UACGUAGGAGGUUUUCCCCCGAUAGUGCUAAGGGGGCCUGGAAGUUUGGACUGGGCAGAGCUCAACACAGCGUGGCAAAGUGGCUGUGGCUAGACUGCCUCUCUGGAUUCCUCGUCACUCAGCAGGGCAUCUCUGAGAGAAAUGCC [U9A U20C]	0.88
UACGUAGGUGGUUUUCCCCUGAUAGUGAUAAGGGGGCCUGGAAGUUUGGACUGGGCAGAGCUCAACACAGCGUGGCAAAGCGGCUGUGGCUAGACUGCCUCUCUGGAUUCCUCGUCACUCAGCAGGGCAUCUCUGAGAGAAAUGCC [C28A U81C]	0.89
UACGUAGGUGGUUUUCCCCUGAUAGUGCUAAGGGGGCCUGGAAGUUUGGACUGGGCAGAGCUCAACUCAGCGUGGCAAAGUGGCUGUGGCUUGACUGCCUCUCUGGAUUCCUCGUCACUCAGCAGGGCAUCUCUGAGAGAAAUGCC [A67U A92U]	0.05
UACGUAGGUGGUUCUCCCCUGAUAGUGCUAAGGGGGCCUGGAAGUUUGGACUGGGCAGAGCUCAACACAGCGUGGCAAAGUGGCUGUGGCAAGACUGCCUCUCUGGAUUCCUCGUCACUCAGCAGGGCAUCUCUGAGAGAAAUGCC [U14C U91A]	0.91
UACGUAGGUGGUUUUCCCCUGAUAGUGCUAAGGGGGCCUGGAAGUUUGGACUGGGCAGAGCUCAACUCAGCGUGGCAAAGUGGCUGUGGCUAGGCUGCCUCUCUGGAUUCCUCGUCACUCAGCAGGGCAUCUCUGAGAGAAAUGCC [A67U A94G]	0.02
UACGUAGGUGGUUUUCCCCUGAUAGUGCUAAGGGGGCCUGGAAGUUUGGACUGGGCAGAGCUCAACACAGCGUAGCAAAGUGGCUGUGGCUAGACUGCCUCUCUGGACUCCUCGUCACUCAGCAGGGCAUCUCUGAGAGAAAUGCC [G74A U108C]	1.48
UACCUAGGUGGUUUUCCCCUGAUAGUGCUAAGGGGGCCUGGAAGUUUGGACUGGGCAGAGCUCAACACAGCGUGGCAAAGUGGCUGUGGCUAGACUGCCUCUCUGGAUUCCACGUCACUCAGCAGGGCAUCUCUGAGAGAAAUGCC [G4C U112A]	0.75
UACGUAGGUGGUUUUCCCCUGAUAGUGCUAAGGGGGCCUGGAAGUUUGGACUGGGCAGAUCUCAACACAGCGUGGCAAAGUGGCUGUGGCUAGACUGCCUCUCUGGAUUCCUCGUCACUCAGCAGGGCAUCUCUGAGAGAAAUGCC [G60U]	0.01
UACGUAGGUGGUUUUCCCCUGAUAGUGCUAAGGGGGCCUGGAAGUUUGGACUGGGCAGAGCUCAACACAGCGUGGCAAAGUGGCUGUGGCUAGACUGCCUCUCUGGACUCCUCGUCACUCAGCAGGGCAUCACUGAGAGAAAUGCC [U108C U132A]	2.04
UACGUAGGUGGUAUUCCCCUGAUAGUGCUAAGGGGGCCUGGAAGUUUGGACUGGGCAGAGCUCAACACAGCGUGGCAAAGUGGCUGUGGCUAGACUGCCUCGCUGGAUUCCUCGUCACUCAGCAGGGCAUCUCUGAGAGAAAUGCC [U13A U102G]	0.41
UACGUAGGUGGUUUUCCCCUGAUAGUGCUAAGGGGGCCUGGAAGUUUGGACAGGGCAGAGCUCAACACAGCGUGGCAAAGUGGCUGUGGCUAGACUGCCUCUCUGGAUUCCUCGUCACUCAGCAGGGCACCUCUGAGAGAAAUGCC [U52A U130C]	1.42
UACGUAGGCGGUUUUCCCUUGAUAGUGCUAAGGGGGCCUGGAAGUUUGGACUGGGCAGAGCUCAACACAGCGUGGCAAAGUGGCUGUGGCUAGACUGCCUCUCUGGAUUCCUCGUCACUCAGCAGGGCAUCUCUGAGAGAAAUGCC [U9C C19U]	1.65
UACGUCGGUGGUUUUCCCCUGAUAGUGCUAAGGGAGCCUGGAAGUUUGGACUGGGCAGAGCUCAACACAGCGUGGCAAAGUGGCUGUGGCUAGACUGCCUCUCUGGAUUCCUCGUCACUCAGCAGGGCAUCUCUGAGAGAAAUGCC [A6C G35A]	1.5
UACGUAGGUGGUUUUCCCCUGAUAGUGCUAAGGGCGCCUGGAAGUUUGGACUGGGCAGAGCUCAACACAGCGUGGCAAAGUGGCUGUGGCUAGACUGCCUCUCUGGAUUCCUCGUCACUCAGCAGGGCAUCUCAGAGAGAAAUGCC [G35C U134A]	0.71
UACGUAGGUGGUUUUCCCCUGAUAGUGCUAAGGGGGCCUGGAAGUUUGGACUGGGCAGAGCUCAACACGGCGUGGCAAAGUGACUGUGGCUAGACUGCCUCUCUGGAUUCCUCGUCACUCAGCAGGGCAUCUCUGAGAGAAAUGCC [A69G G83A]	0.18
UACGUAGGUGGUUUUCCCCUGAUAGUGCUAAGGGGGCCUGGAAGUUUGGACUGGGCAGAGCUCAACACAGCGUGGCAAAGUGGCUGUGGCUAGACUGCCCCUCUGGAUUCCUCGUCACUCAGCAGGACAUCUCUGAGAGAAAUGCC [U100C G127A]	1.9
